Experimental data reported in the DeepSol protein solubility set.

Assay: soluble on expression in E. coli; label from the status in PepcDB or PDB records

Sequence | soluble on expression in E. coli
MSTVSGLKRPQSSEKNHRDRVFVRATRGKVQKVVREQYLRNDIPCQSRACPLCRSKLPKDSRGNVLEPILSEKPMFLEKFGHHYLIPDSNIFYHCIDALEHPNNFFDVIILQTVFSEISSKSIPLYNRMKRLCQEKTKRFTPFSNEFFVDTFVERLDDESANDRNDRAIRNAASWFASHLASLGIKIVLLTDDRENARLAAEQGIQVSTLKDYVQYLPDSEILLDMVSAIADAIASKEQVESGTKNVYELHWSMSRLLACIKNGEVHKGLINISTYNYLEGSVVVPGYNKPVLVSGRENLNRAVQGDIVCIQILPQDQWKTEAEEIADDDEDVVVSTAAEPDSARINDLELITKRNAHPTAKVVGILKRNWRPYVGHVDNATIAQSKGGSQQTVLLTPMDRRVPKIRFRTRQAPRLVGRRIVVAIDLWDASSRYPEGHFVRDLGEMETKEAETEALLLEYDVQHRPFPKAVLDCLPEEGHNWKVPADKTHPLWKNRKDFRDKLICSIDPPGCQDIDDALHACVLPNGNYEVGVHIADVTHFVKPNTSMDSEAASRGTTVYLVDKRIDMLPMLLGTDLCSLRPYVERFAFSCIWEMDENANIIKVHFTKSVIASKEAFSYADAQARIDDQKMQDPLTQGMRVLLKLSKILKQKRMDEGALNLASPEVRIQTDNETSDPMDVEIKQLLETNSLVEEFMLLANISVAQKIYDAFPQTAVLRRHAAPPLTNFDSLQDILRVCKGMHLKCDTSKSLAKSLDECVDPKEPYFNTLLRILTTRCMLSAEYFCSGTFAPPDFRHYGLASPIYTHFTSPIRRYADVLAHRQLAAAIDYETINPSLSDKSRLIEICNGINYRHRMAQMAGRASIEYYVGQALKGGVAEEDAYVIKVFKNGFVVFIARFGLEGIVYTKSLSSVLEPNVEYVEDEYKLNIEIRDQPKPQTVQIQMFQQVRVRVTTVRDEHSGKQKVQITLVY | soluble
MAGWETHKKAQWLCQLRKGMSMLPDTLSEQFVLYLDVLDGGSFSAAARKHPLTPSAVARRMDALERAVGSTLLVRTTHAVRATPAGLAFADRARRIVTELRLARAEAVSLSTAPQGLIRIDAPVPFGRRHLAPAVADFLKANPGLDVQLRLIGSFIDLQGEHLGEVDLVLRAGPLPDSRLVATSLAPMVRVVCASPEYLREHGVPASPGELPEHAGIDWDNLSPPYAWRFQHDGKLQHLRPKRARLATNNAEAMVDAALAGLGIAHLPTWLCSEYLLRGELQALFCDDGLPAAEPTCIYALRLEREASSRTRLLLAFLRERFGFPPPWDQALQQRLGER | not soluble
METKYLRINPADNVAVAIVNLPAGEHLSVDGIEITLNEDIPAGHKFALKDFAEGENVIKYGYPIGHARMAKKQGDWMNETNIKTNLAGLLEYTYHPTQVTLDIPHKNLTFKGYRRKNGDVGVRNEIWIIPTVGCVNGIIGQLAEGLRRETEGKGVDAIVAFPHNYGCSQLGDDHENTKKILRDMVLHPNAGAVLIVGLGCENNQPDVFREFLGDYDQDRVKFMVTQKVGDEYEEGMDILRDLYAKASKDERTEVPLSELRVGLKCGGSDGFSGITANPLLGMFSDFLIAQGGTSVLTEVPEMFGAETILMNRCENKDLFEQTVHLINDFKEYFLSHGEPVGENPSPGNKAGGISTLEEKALGCTQKCGKSYVSGVMPYGERLQKKGLNLLSAPGNDLVAATTLAASGCHMVLFTTGRGTPFGTFVPTMKISTNSTLAKNKPGWIDFNAGVIVENEPMEKTCERFIEYVIKVASGEFVNNEKKGYREIAIFKTGVTL | not soluble
MTFLLKSCSTFFEKFCCCCKKYESEWNTQLESISLFAARRGFTDGEPYLILFGLCPNANKTFIVSENKLSDSNICLGDFLVACSDSPKNLKNFKKVPYPLDVTVEGDYAIISYSSMEAIKDISGILIFQTTDFGPIRSLNQNLDLDEYNITVHATGVSASGHVIELRAKAQPASNYRNSSVYENPSFLDDLSDEPLEIKKTISNNSLDGFSMEQLIQQLPTLELGEAENSVRVPQNLSAPRLMKAFVYSVHQYPHTKFHFLWICDIMEKSILKLPQYDFELGYFFEGIFKQKSNGKWECEQYNNKIEPLINGTVVINEYNGNEKVELTTTVTNYKPKNNTRKWPEVEAKYLGVVYDRHNKLPKNCEGQKVEVQMMKIDKEQYGWVITDILNE | not soluble
MGSDKIHHHHHHMLLTDLVTPPDTALCAAAEEMARMASDPFLYNHVSRSYIFGALAARATGTQYDPELFYIAAMLHDLGLTETYMAEDRFEVDAAEAAAKFLAAQNVEQSRIDRVWDAIALHTTFSIPQKKSPEAALVQIGAGLDVGVMPHDHITPEVMEQVLDAYPRLGFKKAMEQALIKVYAAKPMTAMHNFGADVAHRHVPDFHPPHFCDVLHGADFPE | not soluble
MSLKNREWYKDAVFYEVLVRAFYDPEGNGVGSLKGLTEKLDYIQWLGVDCIWIPPFYDSPLRDGGYDIRNFREILPEFGTVDDFVELIDHAHRRGLRVITDLVMNHTSDQHAWFQESRRDPTGPYGDFYVWSDDPTLYNEARIIFVDTEESNWTYDPVRGQYFWHRFFSHQPDLNYDNPAVQEAMLDVLRFWLDLGLDGFRLDAVPYLFEREGTNGENLKETHDFLKLCRSVIEKEYPGRILLAEANQWPQDVVEYFGEKDKGDECHMAFHFPLMPRIFMGVRQGSRTPISEILANTPEIPKTAQWGIFLRNHDELTLEMVSDEERSYMYSQFAMEPRMRANVGIRRRLSPLLEGDRNQLELLHGLLLSLPGSPVLYYGDEIGMGDNIWLHDRDGVRTPMQWSNDRNGGFSKADPERLYLPAIQNDQYGYAQVNVESQLNRENSLLRWLRNQILIRKQYRAFGAGTYREVSSTNESVLTFLREHKGQTILCVNNMSKYPQAVSLDLREFAGHTPREMSGGQLFPTIAEREWIVTLAPHGFFWFDLTADEKDDMEEGHHHHHH | soluble
MSLTKEPILELADMSDFEQLIRQHPEKIIILDFYATWCGPCKAIAPLYKELATTHKGIIFCKVDVDEAEDLCSKYDVKMMPTFIFTKNGDAIEALEGCVEDELRQKVLEHVSAQ | not soluble
MGSSHHHHHHSSGLVPRGSHMRPHGDTAKKPIIGILMQKCRNKVMKNYGRYYIAASYVKYLESAGARVVPVRLDLTEKDYEILFKSINGILFPGGSVDLRRSDYAKVAKIFYNLSIQSFDDGDYFPVWGTCLGFEELSLLISGECLLTATDTVDVAMPLNFTGGQLHSRMFQNFPTELLLSLAVEPLTANFHKWSLSVKNFTMNEKLKKFFNVLTTNTDGKIEFISTMEGYKYPVYGVQWHPEKAPYEWKNLDGISHAPNAVKTAFYLAEFFVNEARKNNHHFKSESEEEKALIYQFSPIYTGNISSFQQCYIFD | soluble
MGSDKIHHHHHHNDPNIQIATQDSLSTLNYRINQLLKNGTVTSSSKKNPEVKTDTDKTANDSTSDSRVWSKPEANVYIDIHDNMQLRSATIDAMNAWNRTGAFTFKQIDNKKNAQIIVNVVDDSGTDAAGETATTYNPATGHLLKATVHLNRYYLQNEWYGYSNNRIINTAEHELGHAIGLNHTNSVSVMYPKGSIYTIQPQDIKNLKKIYHEN | not soluble
MGHHHHHHSHMTSYDQIWETFLNNCETSDFDVPQQEEDIYKSIRNAILHFNNRLRDNLKADNSTETVNRELSEDDLLILAHFLRYIFLLNKKTLFENTWQPFTNDVGIKNFGTQLNSLKQSVMDQKDEIERLILNAAVDYL | soluble
MNPIASNSAVTLHFTIKLKDGSVADSTHNQGKPAKLVMGDGSLSPNFEQCLLGMLPGEKKSVALAAQDAFGAPNPDHVHYMDRSKFLGGDLQLEVGTIMAFSGPDGMEIPGIITEIAGDSVTVDFNHPLAGQDITFDVEILSVE | not soluble
MSAESGVAALLRLMAWLSPAFPVGGFSYSGGLEKAVEDGRVCDAAGLGGWVETLLRHGSLWNDAVFLAHAWRSSQDTTALSETANLGRALAGSAERYRETVLLGDAFIAAASAWPHAVLELLPKEAPYPVAIGAVAAGHGVPLRETLAAFLHAGVSQIVSAGIRLGVAGQKDGVAILAASEAVIEEIAARAALSTLDDLGSATVIADTAAMRHETQGTRLFRSLEHHHHHH | not soluble
MNELINGNAIKMTSIEIAELVESRHSNVKVSIDRLVKRGVIKPPALQHTNIINDLGVITGKRDFYVFEGEKGKRDSIIVVAQLSPEFTARLVDRWRELEEAAVNIPKTLPEALRLAADLAEQKMQLENQLAIAAPKVEFADRVGEASGILIGNFAKVVGIGPNKLFAWMRDHKILIASGARRNVPMQEYMERGYFTVKETAVNTNHGIQISFTTKITGRGQQWLTRKLLDNGMLKVTGEAA | not soluble
